# Experimental data taken from PMC10817188.
# B1: truncated BLIP-II (tBLIP-II), β-lactamase inhibitory protein-II without its signal sequence (natural protein)
# chain: ATSVVAWGGNNDWGEATVPAEAQSGVDAIAGGYFHGLALKGGKVLGWGANLNGQLTMPAATQSGVDAIAAGNYHSLALKDGEVIAWGGNEDGQTTVPAEARSGVDAIAAGAWASYALKDGKVIAWGDDSDGQTTVPAEAQSGVTALDGGVYTALAVKNGGVIAWGDNYFGQTTVPAEAQSGVDDVAGGIFHSLALKDGKVIAWGDNRYKQTTVPTEALSGVSAIASGEWYSLALKNGKVIAWGSSRTAPSSVQSGVSSIEAGPNAAYALKG
# Assays:
# [1] = biological target: β-lactamase obtained from Bacillus cereus 569H (Bacillus cereus 569H)
# [2] = biological target: β-lactamase obtained from Bacillus cereus 569H (Bacillus cereus 569H); remark: listed apart in the source
# [3] = biological target: KPC-2 carbapenemase (Klebsiella pneumoniae carbapenemase 2) (Klebsiella pneumoniae (endogenous in ATCC BAA-1705)) (UniProt Q9F663)
# Chain of UniProt Q9F663 (Q9F663 25-293): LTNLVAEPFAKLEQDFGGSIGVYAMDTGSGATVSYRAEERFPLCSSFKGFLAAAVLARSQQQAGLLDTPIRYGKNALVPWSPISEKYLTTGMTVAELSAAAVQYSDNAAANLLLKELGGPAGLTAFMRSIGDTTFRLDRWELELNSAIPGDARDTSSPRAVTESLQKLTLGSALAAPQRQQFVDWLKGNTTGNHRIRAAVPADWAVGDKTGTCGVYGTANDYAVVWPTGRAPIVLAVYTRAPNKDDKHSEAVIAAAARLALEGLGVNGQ
binder,measurement,setting,value
B1,"IC50 of inhibition of nitrocefin hydrolysis by the β-lactamase (inhibitor 0.0078-2 μM, pre-incubated 15 min at 30°C, absorbance at 490 nM)",[1],0.0511 µM
same,reduction in β-lactamase activity (nitrocefin hydrolysis) at 0.0625 μM inhibitor; constant at higher concentrations up to 2 μM,[2],70%
same,MIC of meropenem against K. pneumoniae ATCC BAA-1705 (bla KPC-2 positive) with 10 or 20 μM protein (16 μg/mL without protein; 8 at both concentrations),[3],8 mg/L
